US20150293119A1
Blank lines part the entries; values can stand above or below the substance they belong to.

Legend:
[1] = target: recombinant human MMP-9/NGAL complex (human) (UniProt P14780); test: ELISA (Quantikine, R&D Systems)
[2] = target: ANP (Homo sapiens (Human)) (UniProt P01160); test: radioimmunoassay, competition with I125-labeled CNP
[3] = target: BNP (Homo sapiens (Human)) (UniProt P16860); test: as above
[4] = target: adrenomedullin (Homo sapiens (Human)) (UniProt P35318); test: as above
[5] = target: endothelin; test: as above
[6] = target: human CNP-53 (AA 51-103) (human) (UniProt P23582); test: as above
[7] = target: human CNP-53 (AA 51-103) (human) (UniProt P23582); test: radioimmunoassay
[8] = target: human CNP-22 (AA 82-103) (human) (UniProt P23582); test: radioimmunoassay

- cross-reactivity [1]: 0.3%
Substance: NGAL enzyme-linked immunoassay (Quantikine ELISA, R&D Systems) (tool reagent)

- cross-reactivity [2]: < 1%
- cross-reactivity [3]: < 1%
- cross-reactivity [4]: < 1%
- cross-reactivity [5]: < 1%
- cross-reactivity [6]: 97%
Substance: antibody to human CNP-22 of the non-equilibrium radioimmunoassay kit from Phoenix Pharmaceutical (Example 1) (tool reagent)

- cross-reactivity [7]: 59%
Substance: antibody that detects human CNP-22, non-equilibrium radioimmunoassay kit from Phoenix Pharmaceutical (Example 2) (tool reagent)

- cross-reactivity [8]: 100%
Substance: antibody that detects human CNP-53, non-equilibrium radioimmunoassay kit from Phoenix Pharmaceutical (tool reagent)
